The results in this text go back to PMC4894398, “Efficient Demyristoylase Activity of SIRT2 Revealed by Kinetic and Structural Studies” (Scientific Reports, 2015).

No end group written: not given here.

In experiment [1] the target is SIRT2 (residues 38–356 of the full-length human SIRT2) (human) (UniProt Q8IXJ6).
The target in experiment [2] is T1, SIRT2 (residues 38–356 of the full-length human SIRT2) (human, UniProt Q8IXJ6 38-356).
T1 construct: NAD-dependent protein deacylase sirtuin-2 (SIRT2), human, residues 38-356 of the full-length protein; Cloned into pET28b(+) with an N-terminal hexahistidine and sumo tag; The tag was cut off by Ulp1 and removed on a second Ni-NTA column; source: E. coli BL21 (DE3), purified (Ni-NTA, Ulp1 cleavage, second Ni-NTA, Superdex G200); not shown: His6, N-terminal, cleaved; SUMO, N-terminal, cleaved
T1 sequence (looked up): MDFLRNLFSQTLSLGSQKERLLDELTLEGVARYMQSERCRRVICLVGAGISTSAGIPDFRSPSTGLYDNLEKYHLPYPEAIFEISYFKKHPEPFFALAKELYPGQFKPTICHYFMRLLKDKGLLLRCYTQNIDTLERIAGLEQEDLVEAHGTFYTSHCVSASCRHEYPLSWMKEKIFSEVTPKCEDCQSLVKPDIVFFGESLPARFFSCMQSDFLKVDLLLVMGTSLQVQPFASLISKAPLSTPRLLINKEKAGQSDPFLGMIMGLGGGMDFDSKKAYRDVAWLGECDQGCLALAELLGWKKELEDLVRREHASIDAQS
Put plainly: crystal structure; 10 mg/mL SIRT2 in 20 mM Tris, 50 mM NaCl, pH 7.5 preincubated on ice with 10 mM BHJH-TM1 for about 1 h; hanging drop, 25% PEG 3350, 0.1 M Hepes pH 7.5; 2.1 Å, two subunits in the asymmetric unit. The settings on record: both partners purified.

As for “H3K9 myristoyl peptide (histone H3 Lys9 peptide bearing a myristoyl group)”, the Km of demyristoylation of the H3K9 myristoyl peptide by SIRT2 (HPLC kinetics, 0.2 μM SIRT2, 1 mM NAD, 37°C, peptide 0.25-32 μM) in experiment [1] is 0.24 µM.

Take PKK(thiomyristoyl)TG (also called Myr Peptide (PKK(Tmy)TG)) [BHJH-TM1 thiomyristoyl peptide (PKK(TMy)TG)]: the binding result in experiment [2] is recorded as “binds”.
